Target: Acanthamoeba castellanii actin (amoeba actin), filaments (Acanthamoeba castellanii)

Sequence of mDelFCΔ20, mDelFC lacking the last 20 residues (Q0QWG9 805-1183, stated change not applied): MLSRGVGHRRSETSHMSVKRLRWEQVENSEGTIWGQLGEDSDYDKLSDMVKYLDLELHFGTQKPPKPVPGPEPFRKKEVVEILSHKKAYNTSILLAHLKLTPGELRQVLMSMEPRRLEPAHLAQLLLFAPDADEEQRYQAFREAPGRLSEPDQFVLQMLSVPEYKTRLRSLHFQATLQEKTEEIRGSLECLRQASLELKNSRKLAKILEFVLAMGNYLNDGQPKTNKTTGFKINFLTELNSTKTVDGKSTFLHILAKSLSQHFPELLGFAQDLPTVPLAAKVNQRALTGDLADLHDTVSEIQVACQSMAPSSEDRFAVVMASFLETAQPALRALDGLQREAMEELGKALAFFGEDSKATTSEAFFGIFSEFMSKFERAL

inhibition of barbed-end elongation in seeded elongation assays: 7 nM
Substance: mDelFCΔ20, mDelFC lacking the last 20 residues (from UniProt Q0QWG9-2 626-1004) (domain or fragment)

From paper PMC6004577
